Experimental data taken from US20090280109A1, “ILT3 and ILT4-related compositions and methods” (The Trustees of Columbia University in the City of New York, priority 2001, published 2009).
Entries after “also recorded” stand apart in the source; their conditions may differ.

Tested on: ILT3 and ILT4 on monocytes and DCs
Test: Flow cytometry of ILT3, ILT4 and costimulatory molecules on APCs
Type: cell-based, human
Settings: for ILT3 and ILT4 expression on APC (monocytes and dendritic cells): treatment of APC
Method: To study the expression of ILT3 or ILT4 and costimulatory molecules on normal APCs from peripheral blood or spleen cell suspensions, APCs were incubated with TS cells for 18 h with or without CD40L-transfected D1.1 cells (see Results). The cells were then collected, washed and saturating amounts of mAbs to ILT3 or ILT4 were added (21, 22). After 30 min on ice, cells were washed twice, stained with PE-goat-anti-mouse or PE-goat-anti-rat (Caltech, Burlingame, Calif.), then washed twice again, incubated with mouse or rat IgG (as a blocking antibody, Vector Labs, Burlingame, Calif.), washed twice, then stained with mAbs to FITC-CD14 or cychrome-CD11c, FITC-HLA-DR and PerCP-CD3 (Pharmingen, San Diego, Calif.). In other samples, mAbs to PE-CD80 and PE-CD86 were added along with markers for monocytes and DCs. CD3^+ T cells were gated-out and CD14^+ monocytes or CD14^− CD11c^+HLA-DR^+ immature DCs were analyzed with CellQuest software on a G4 Apple Macintosh Computer. Annexin V and PI staining of target APCs was done as described (12). Five parameter analyses (forward scatter, side scatter and three fluorescence channels) were used for list mode data analysis. The FL3 channel was used as a fluorescence trigger and FL1 and FL2 as analysis parameters.

Molecule: TNF-alpha
- ILT3 and ILT4 expression on APC (monocytes and dendritic cells): increase the expression

B1: IL-10: Interleukin 10, immunoregulatory cytokine (protein, UniProt P22301 19-178, looked up)
Interleukin-10: SPGQGTQSENSCTHFPGNLPNMLRDLRDAFSRVKTFFQMKDQLDNLLLKESLLEDFKGYLGCQALSEMIQFYLEEVMPQAENQDPDIKAHVNSLGENLKTLRLRLRRCHRFLPCENKSKAVEQVKNAFNKLQEKGIYKAMSEFDIFINYIEAYMTMKIRN
- ILT3 and ILT4 expression on APC (monocytes and dendritic cells): induces upregulation; also recorded: increase the expression
- CD86 expression on human monocytes and DCs (within 20 h of incubation): down-regulated
- expression of ILT3 and ILT4 on the membranes of human monocytes and DCs (within 20 h of incubation): up-regulated
